The numbers were not newly measured in PMC6359508, which cites them from elsewhere.

As usually defined, the Kd is the equilibrium constant for the complex coming apart.

This data set has as its target actin microfilament (UniProt P68133).

“V-ATPase B subunit (from UniProt P21281)”: the Kd is 150 nM.
